The experiment has as its system Interleukin-1β. The experiment is described as follows: Interleukin-1β in jugular mucosa (ELISA), 5-FU induced OM in hamsters. The experiment is classed as in vivo, golden Syrian hamsters. As to conditions: for IL-1β levels, % Decrease vs G2: G2 = OM + Vehicle. As to the method: To induce OM, animals were administered (except normal control) 5-Fluorouracil (5-FU) by intraperitoneal route at doses of 60 mg/kg & 40 mg/kg respectively on first two days. On Day 4, under anesthesia, with aim of enhancing OM, mechanical irritation of the oral mucosa were done using wire brush. Treatment was initiated from Day 4 to Day 12. For group 3 animals 100 μl of vehicle comprising of standard drug Dexamethasone at 0.1 mg was instilled in buccal cheek pouch. For group 4, 5 and 6 animals 100 μl of vehicle comprising of SEQ ID NO. 2 at 0.25 mg, 0.5 mg & 1 mg, respectively was instilled in buccal cheek pouch. At the end of treatment period, cheek pouch of the hamsters was exposed, Mucositis scoring was carried out and images were captured. The animals were then humanely sacrificed, cheek pouch/jugular mucosa were isolated and used for biomarker estimation and histopathological investigation by using ELISA method and Hematoxylin and Eosin (H&E) staining, respectively.
Further, for biomarker estimation jugular mucosa was dissected out, tissue weighed and stored in ice cold 1×PBS. 100 mg of tissue was taken and in 1 ml of 1×PBS buffer. Supernatant of homogenate was used for analysis of TNF-α and Interleukin-1β using ELISA method as per manufacturers instruction. The levels of TNF-α and Interleukin-1β are given in Table 13, FIG. 2 and Table 14, FIG. 3, respectively.
In general terms: An ELISA detects its analyte on a solid surface through an enzyme-linked reagent.

The results in this text go back to patent publication US20250064890A1, “PROTEIN COMPOSITIONS FOR THE TREATMENT OF INFLAMMATORY DISEASES” (Unichem Laboratories Limited, priority 2021, published 2025).

B1: SEQ ID NO 2: recombinant lectin, variant of the S. rolfsii lectin amino acid sequence (reported as Rec-2 in WO 2010/095143) (protein)
chain: TYKITVRVYQTNPDAFFHPVEKTVWKYANGGTWTITDDQHVLTMGGSGTSGTLRFHADNGESFTATFGVHNYKRWCDIVTNLAADETGMVINQQYYSQKNREEARERQLSNYQVKNAKGRNFQIVYTEAEGNDLHANLIIG
For B1, the “IL-1β levels, Mean” value runs as follows: (G4, 0.25 mg/Animal) 79.10; (G5, 0.5 mg/Animal) 105.66; (G6, 1 mg/Animal) 101.96. For the same molecule, the “IL-1β levels, % Decrease vs G2” value is, setting by setting: (G4, 0.25 mg/Animal) 54.45%; (G5, 0.5 mg/Animal) 39.16%; (G6, 1 mg/Animal) 41.29%. In addition, the “levels of IL-1β as compared to the untreated subjects” value (hamsters suffering from OM, in words) was “reduction”.
